Values joined by “and” are separate entries in the source; they are usually repeats but may differ in a detail not shown here. Identical values can stand only once.

A word on the Kd: it is the free concentration of one partner at which half of the binding sites on the other are occupied at equilibrium, for simple one-to-one binding. In general, IC50 refers to the concentration at which inhibition is half-maximal. A high value points to weaker potency.

Experiment [1] has as its target ATRXADD-His (His-tagged ATRX ADD domain) (UniProt P46100). The experiment is described as follows: AlphaScreen or HTRF; direct signal, Nickel Chelate (Ni-NTA) kit: H3_(1-15)K9me3-biotin on streptavidin beads, ATRXADD-His on Ni-NTA beads; 20 μg/mL of each bead. For orientation: In Alpha technology, singlet oxygen from a donor bead excites a nearby acceptor bead.
Experiment [2] concerns the target Histone H3 (Homo sapiens) (UniProt P68431). As to conditions: cited from earlier work.
The target of experiment [3] is Histone H3 H3 tail peptide (Homo sapiens) (UniProt P68431). The conditions noted are these: cited from earlier work.
For experiment [4], the target named is Histone H3 1-15 (Homo sapiens) (UniProt P68431). The experiment is described as follows: ITC. As to conditions: cited from earlier work.
Experiment [5] addresses ATRXADD-His (His-tagged ATRX ADD domain) (UniProt P46100). The experiment is described as follows: AlphaScreen or HTRF; competition, Ni-NTA kit: ATRXADD-His (625 nM), H3_(1-15)K9me3-biotin (94 nM), 20 μg/mL of each bead, unlabeled peptide added; HEPES buffer (50 mM HEPES, 100 mM NaCl, 0.1% Triton X-100, 0.1% BSA); 1 hour, room temperature, dark.

As to “H3_(1-15)K9me3-biotin peptide (biotin label at the C-terminus) (from UniProt P68431 2-16)”, the AlphaScreen signal in experiment [1] came to 1.25e+06.

Turning to ATRX ADD (from UniProt P46100), the Kd in experiment [2] was greater than 80 µM; in experiment [3], greater than 80 µM; in experiment [4] it was 385 nM and 2700 nM.

For “H3_(1-15)K9me1 peptide (from UniProt P68431 2-16)”, the IC50 in experiment [5] was greater than 10 µM.

In experiment [5], “H3_(1-15)K9me0 peptide (from UniProt P68431 2-16)” registered an IC50 greater than 10 µM.
